# Experimental data taken from the DeepSol protein solubility set.
# Assay: soluble on expression in E. coli; label from the status in PepcDB or PDB records
row,Sequence,soluble on expression in E. coli
1,MDDDFLPRRLKYSKHSLMLVALDYIPKELHKCLDMDRLEDVSAGGAYTTKQMLEEILNSDSRFRIYGNAEVFEKLLEKYMNFTSCREKFGFEKLQVLCVPIPMSPNLKGEKYLTKQDMFEHVQFYLMDVFHHTGFPFDNVVISLAFIKFRADRLNGCMEFVSNAREVLNSIESEIDQFLDELLDILNAEYFPKNYALPSKNPSFDTLYKQWKSFFPDWKPDELDSIQRFLEDRYSHLPPHKNAEKYGGILFVNHYLTNKYRELIDSRPEVFLPYNAMNRHKAPITVRVILFKDTKLVLRGELYKAMNQAYPDRVPIDYTDDLEEGIIYAMNFEDVFKEFGDLWYDIEFILTKVTRTNNATPILTLSGEFCIPGLQAFYNIFHVMNNVLRLFQKVKKEMWHFVCGYVKILEVRLKPFEDTPCFITNTALETIIQELCEYWRMFENAPFKDIRTVKGATFTADDLKNELSHIGVLDIFPELGELVDTGYQAILEVKQNADNLKTWDLMDYLESTLIFCFSSRFEFLNNLLEIQEGIHPKNENLANIFLGITSKPENLLPYLIDKSRYQDVLPTVPLERHRVRVTYNFSIDDETISEPTPVPQQLEKKTENCSECNDVRMEMNTVKDVLQNVQKQLKNMQQNSEQFETKLVASDNKTKNFEKQLEDERRKNNKHLESSRKTLISKNEQLEALKRRATALSNCQAENQTLKFKIAEHHLLEKQLNISNKDVTQARDQLSGQISELEIQLKSELKTVQHLKKEQTISCNLTNEITKLKDQIEREKLCSKQLEKEISQLRTEADEMNIVMTQSLEMENLQLRDATKKFETENASLLKTNQQLSIQNEEQKRLIQVLLEKQQTAPSSSDFPVPSTQMTDNEENSRQQLWKYQKIKDSFRDGIKLRKAEAMVKKLTSLNRDPGVHQMAHRELENFKKLTSHYLQAIEMNILKIKNNGSSDLEQLPEAPKFSDEFMRFYRNATGKQTLTSASFSSGNSRGTQSYGSSISTMPSTSSRGNVQHHSGSAVRGQSITPTGLSQVPMSPRKLFSQPNIVTASITSTELDDTECAICLDEMTNFKETIKCQCRRRFHLECATKWLNEKRECPTCRKLLLNPSDYPPLN,not soluble
2,MNKFLFAAALIVSGLLVGCNQLTQYTITEQEINQSLAKHNNFSKDIGLPGVADAHIVLTNLTSQIGREEPNKVTLTGDANLDMNSLFGSQKATMKLKLKALPVFDKEKGAIFLKEMEVVDATVQPEKMQTVMQTLLPYLNQALRNYFNQQPAYVLREDGSQGEAMAKKLAKGIEVKPGEIVIPFTD,not soluble
3,MLKSSASAPAKAILFGEHAVVYSKPAIAAAIDRRVTVTVSESSSTHVTIPSLGIRHSSERPSGGILDYIGRCLELYHDASPLDIRVEMEIPAGSGLGSSAALTVALIGPLDRYHGRDHGPGETAARAHRVEVDVQGAASPLDTAISTYGGLVYLDSQRRVRQFEADLGDLVIAHLDYSGETARMVAGVAERFRRFPDIMGRIMDTVESITNTAYRELLRNNTEPLGELMNLNQGLLDSMGVSTRELSMMVYEARNAGAAGSKITGAGGGGSIIAHCPGCVDDVVTALNRNWKAMRAEFSVKGLI,soluble
4,MGSDKIHHHHHHMKLRKQLAQQIVTSIKDVCQQDINFINTKGIIFASTNPKRVGEFHEIGLKVAQTGQMIEVTDQESYFGTQAGINIPFYYNCELLATIGISGNPNQVGKYALLAQKMTRLILKEHELDYLDFGRKNEASIVLHHLVEGRELDYYYLNQFLNQYHLSEKTDYRLLTFEINSQKQKLLLSQSEMSLLNFFDKLDTAIYTFNYPNQYWLLLSDHMFDYYYPNILSKFECEKGLYKVGIGQKSSLSLLKRSYETSILALKALKGQQKVNLVDDLDLELLLTSIDSNIKQYVLNKALVNLSENDKILLNSYFKHNLSLKECSQELFIHKNTVQYRLNKIYESTQLNPRNFKDATLLYLALKSEDINLHKL,not soluble
5,PRVPSAGAAECKGEISNVQWKNDTNIKDGVFVGSYGQGADVQFDWKVDPGAKAGDQFTLKLPNELSRLGNKDLTLTAPSGEEVAKGTWDDVAKTWTFTLTDYANSHGDISGSAFFTVQWDRSVAQSNTQYPLTFSGCKGAGTLNGKTPEEGVGGTAQATSKTGLYDSKTDSARWNIYVETADTDIYTPVVVKDIGNTQLLFRCSDVKVFDRTPYPHTKIRDTPIDPNRWKCEEKDGGIIVSMVPDEHGRYLTAGQSLTIGFETPINDDTSRFITNKAIVEISPNKIENVEYSVDRGDAGGVGQGFQGKIKIQKEVVGETAPVQGNKFDFEYKCGETTQNISVAAGQTSDIFTQRSSSTCSITEKNVAEGVTVDFEVIDEETGKPAYVVPIDNGVTVKFNKNSSTTLNVKVTNTYPNKPEAKKGKFVIKKTVNGLDAGQKDKAFKFNYTCKAPDGDAYTEPQLAEVTAGRTWQSGNYPEGTICTIEEDLESAKVPGYSLISAQPKGDVTIKAEGTEGSPVEFAATNSYTKDLGSFSVQKKIEASAEAMPLLKDQEFGFKYTCGADKGEFKLKNGETKKVERIATGTKCTVEESDAKVPNGFMWTGKIEGTDLDPNDFTIVKDKTLAFTATNTYKQQYGGFTLSKNVTGDATNLEELQKRSYTFNYTCTAPTGTVLKDKVEITEETPKAIGNIPAASTCKVTEVEAPAKDTDWTVDLSVNGTWVGETAEFKVPAEGEPSISILAKNNYRQHKGSFTIEKIVDASEGIVTPKEFTFTWQCGEDKGAETVRVTNGKGRVEIDRAFPVGTKCSVKELEAEAEDARLITSWENQEFTIDKDKQHVIVSATNTYRYAESKVKIVKKLEGPAKDKAKDKTFTFDYSCVVNNEAIEGSVNITGEGATEIPESFPAGTKCTITERDASISGTTWTHRIAEDGQITIQSPAKVYQVGVTNAYSKPGFP,not soluble
6,MGSDKIHHHHHHMGIGIIIASHGKFAEGIHQSGSMIFGEQEKVQVVTFMPNEGPDDLYGHFNNAIAQFDADDEVLVLADLWSGSPFNQASRVMGENPERKMAIITGLNLPMLIQAYTERMMDANAGVEQVAANIIKESKEGIKALPEELNPVVEATPVAGVPADVPAEVKQSGSIPEGTVIGDGKLKINLARIDTRLLHGQVATAWTPASKANRIIVASDEVSKDELRKQLIKQAAPGGVKANVVPISKLIEVAKDPRFGNTRALILFETVQDALRAIEGGVEIPELNVGSMAHSTGKTMVNNVLSMDKDDVAAFEKLRDLGVSFDVRKVPNDAKKNLFDLINKANVK,not soluble
7,MAHHHHHHMFKFVSSIGDAAYKAASKTGLAAGSEQPPYPCALPLQVIEDCEDTETTERVLNDTYAAVRDLLSDDLPLLHSTISDVQAHKPFKLVDFTDREGDIRLFTRPHVGSYNFARVTLTLDNVSPAKVLTFMHAQSLEARNRYSSNLCQYDVIARNPELPAQYIGNDNDHLEELCRMGIRDWHVEYNRYSAPPPVTARDFVYLVEKRYAPEQRCYYIYGTSVDYRDTAGIAIEKDNCVRGAVVFGWRFQHVGRKTYCTYVSCMSPNGWAPTFIVGWMKTAIAKELQNARRVLYQDVPSCHAAGASSEYAKGALAAYDAPITSCRQNKPTRDHSSSKSSAQKLGNAMEHEERRLLEDEKPIVFE,soluble
8,MTYGIVIVSHSPEIASGLKKLIREVAKNISLTAIGGLENGEIGTSFDRVMNAIEENEADNLLTFFDLGSARMNLDLVSEMTDKELTIFNVPLIEGAYTASALLEAGATFEAIKEQLEKMLIEKRSHHHHHH,soluble
9,MLIHYIDIAKRNFVIAVSSLSKTKTETNNPKGIAHTIEYLKKHKVALVVTESTGGLEIPAAKAIHRAGIAVIIANPRQTHQFAQSQSLTKTDAKDAKMPAFFAQMKAQKEDWQTMPYHPPTEAEEVLEALVNRRNQSADMRTAEKNRLHQVHETQVGSVKQLIAHFDRLIDESDKQIDDHTHTHFDGKAQVAEQIKGIGSITTATLMAMLPELGRLSHKRIASLVGIAPHPRKSGEAKFKSRCFGGRSAVLKALYMATVAATRFEPLIRDFHQRPLSEGKPYKVAVTACMRKLLETFAKFLSLTTTEIPTQVFGCFRPKYRLILPKHPLNPPRTPDNQASGLPFRRQRAHLACWRLSTGSNTSPSDGFAHSL,not soluble
10,SSSNSEKEWHIVPVSKDYFSIPNDLLWSFNTTNKSINVYSKCISGKAVYSFNAGKFMGNFNVKEVDGCFMDAQKIAIDKLFSMLKDGVVLKGNKINDTILIEKDGEVKLKLIRGI,soluble
11,MAHHHHHHMKAKGFHHSTPNFNTAEFTDAADPSDLANDIVTESAVAVDFARDIYGPWLVMTDDLQGELFVDHDGFVYYRPANGLGYGIGKLQVLDAGATGTAFTCQLESYSYQPTNTVVPQYGLTFDITGMVKRVTAKSSDYKTFSLVGVWRRSNRNKGAPALLPSQRSSSDAAVEGASAALSPESLDNQGALDGPGEKTSGQFNAAKLSPWDPSTAARPFAPNAELQSVFTQVFPERLRAESHVQRAEASRESPAARHLAGCAGKPSLMHLDLEQYATGKIPGIYYIPDYISVAEEAQILTFIHGTPEELKSKLTKRTCQEWGCTMCESCQKSFVSDANMPQWVQEFIDMQVYDGLFTPTTFPNSVRIHEYHQGDGIGPHCDGPIYVPMVTVLSLASSCLMSFYPKQPLYENHPMDHYNDTFKFGEGDIGRRVPLQSVVMEPRSLLIFSGEGYYHYPHGISDKAEEVLTPEVVGEVVNRRFLRDPHVQSIPRTYRASITTRNLMTRCSHQPARAEYAMKRAWYLYNHLPVPSELFTPAPQLPQQQQQPAGVSAGGSSGSRESSDASATRSPQKRVESFFPACAPPGTVAVDTELREAIYEMRARQEDLRNNVEELKQLVALSIPVQTTFQTETATILNHLSSSVLQLESKVDDLLEEVESAKRKSSTDT,not soluble
12,MDSIGGVLNTMKKNLLITLALIIMSHHSAYAQDELTYIPIPKANQIADLNDLDKDGVINARDLCAGTPIGAEVDNDGCETYLHKEEQYQLK,not soluble
13,LKQKVENLFNEKCGEALGLKQAVKVPFALFESFPEDFYVEGLPEGVPFRRPSTFGIPRLEKILRNKAKIKFIIKKPEMFETAIKES,soluble
14,MQILTLISWDFKRNNNFFNQAVLNPYEYWADILEKNGISRYVILLTCNRVEIYLRAGFPEDLEAMKPNVLHDEEAIKHLMEVSSGLDSMSLGENEILKQVKEAYELSVRNGKVDKVLSLIFQKAIFVGKKVRSETEISRGKVSVPSIVYDILSSRVVQKVLIIGNGMIAGEIAPYLSGKFEVTIAGRNIDHVKDLASKYNYSYTTINDLHELIMRNDAIISATSSKTPIIRREEMVEGKLYIDLGNPRNIEDKPGADIITIDDIYSVSNRNGSARMESVDEARRIIEIEMASLMNKIKDVMIDEIFADFYKFAVVVQKMEIEKFSRMHPEIPASDVEAFAHSMINKVMNIPVMTLKSVARSQSNQDFSRIFSKFYDNFSDLVSAALQSYEGRQDTQSLRDRTRRLLQRS,not soluble
15,MAHHHHHHMPCNCRQGTGTHDHLQDGFARGGMFGVGSPLNAQVDVDLLQLWNSRNSVSEAARIFDPAKGDNDQPICSDADPELLLLIPLKEVCRIRSVSILGTNDDFAPSQVKLFCNPTGVVGFDSVRRLQHQEEIQLAQVSADDRIAYRLNPAKFSSAGCMGMLFEHSFGDDETHILRIELFGESTGRPVYQQTATNVVYEAMANPTDHNVGEELKKTFTIF,soluble
16,MAHHHHHHMSFLPIRVCVLVCSYEGSDSELKEYEGEIVQTPQHYFTEEDSKEFVFTLEFVKKATAYRQIRQLVKSGAFDVFYNQCDGAIDEDKAGVEVVQALESFKVPFTGAISKYYELSKPEMKRMAHYCAVKTAPYAVLEAGDNVRELCAALHFPLIVKHISGYSSVGMDKSCKVYDMDALKERVARFIDQYQSALVEEFISGDEATVLVCADASQPGGIRVFPPVMVQFPEGEDFKHFHLKWETYEGMIWRLVSEDDPALPDIIHIARTAFLHMMGGVGYGRVDVRIDREKNTVVFLEINPNCGIMYPYGQEGSADWILRLTPEFKQKEFAKLQISEAIRIHKCKQPLFRCAYDPVREYYICATRDIPAGSIIFEGEGRLVRLCTKPYVKANWSEVEYNEFLHDAWPVGAEGHYYALWDLESSDWRAVNHSCDPNMGFCPNRSLNVHALRDIAKGEELTMDCRLFMDDTMPPFQCHCKTSICAGWIRGGVMRESHFFESYTERLIHREDKFITQLTRN,not soluble
